The RNAGym collection of RNA variant scans (doi:10.1021/acssynbio.7b00057)

B1: Pistol ribozyme (parent)
chain: GGGUCGUUGUUCCAUAAUCGCGUGGAUAUGGCACGCAAGUUUCUACCGGGCACCGUAAAUGUCCGACUGGAGCCGUUCGGGCGGCUAUAAACAGACCUCAGGCCCGAAGCGUGGCGGCACCUGCCGCCGGUGGUAAAAAAGAUCGGAAGAGCACACGUCU

Variants of: B1
Test: aptazyme ON/OFF ratio, guanine; higher = stronger switching; co-transcriptional cleavage with and without guanine

With GGGUCGACUCAAUAUAAUCGCGUGGAUAUGGCACGCAAGUUUCUACCGGGCACCGUAAAUGUCCGACUGGAGCCGUUCGGGCGGCUAUAAACAGACCUCAGGCCCGAAGCGUGGCGGCACCUGCCGCCGGUGGUAAAAAAGAUCGGAAGAGCACACGUCU [U7A U8C G9U U10C U11A C12A C13U] as the variant, how does the “aptazyme ON/OFF ratio” value read?
The value was 1.12.

For GGGUCGACUCAAGAUAAUCGCGUGGAUAUGGCACGCAAGUUUCUACCGGGCACCGUAAAUGUCCGACUGGAGCCGUUCGGGCGGCUAUAAACAGACCUCAGGCCCGAAGCGUGGCGGCACCUGCCGCCGGUGGUAAAAAAGAUCGGAAGAGCACACGUCU [U7A U8C G9U U10C U11A C12A C13G], which “aptazyme ON/OFF ratio” value is on record?
The value was 1.1.

For GGGUCGACUCCGCAUAAUCGCGUGGAUAUGGCACGCAAGUUUCUACCGGGCACCGUAAAUGUCCGACUGGAGCCGUUCGGGCGGCUAUAAACAGACCUCAGGCCCGAAGCGUGGCGGCACCUGCCGCCGGUGGUAAAAAAGAUCGGAAGAGCACACGUCU [U7A U8C G9U U10C U11C C12G], which “aptazyme ON/OFF ratio” value is on record?
The value was 1.07.

For GGGUCGACUCCACAUAAUCGCGUGGAUAUGGCACGCAAGUUUCUACCGGGCACCGUAAAUGUCCGACUGGAGCCGUUCGGGCGGCUAUAAACAGACCUCAGGCCCGAAGCGUGGCGGCACCUGCCGCCGGUGGUAAAAAAGAUCGGAAGAGCACACGUCU [U7A U8C G9U U10C U11C C12A], which “aptazyme ON/OFF ratio” value is on record?
The value was 1.08.

Which “aptazyme ON/OFF ratio” value does the source give for GGGUCGACUCCUCAUAAUCGCGUGGAUAUGGCACGCAAGUUUCUACCGGGCACCGUAAAUGUCCGACUGGAGCCGUUCGGGCGGCUAUAAACAGACCUCAGGCCCGAAGCGUGGCGGCACCUGCCGCCGGUGGUAAAAAAGAUCGGAAGAGCACACGUCU [U7A U8C G9U U10C U11C C12U] here?
Its value is 1.06.

Which “aptazyme ON/OFF ratio” value does the source give for GGGUCGACUCCUAAUAAUCGCGUGGAUAUGGCACGCAAGUUUCUACCGGGCACCGUAAAUGUCCGACUGGAGCCGUUCGGGCGGCUAUAAACAGACCUCAGGCCCGAAGCGUGGCGGCACCUGCCGCCGGUGGUAAAAAAGAUCGGAAGAGCACACGUCU [U7A U8C G9U U10C U11C C12U C13A] here?
Its value is 1.05.

For GGGUCGACUCUUAAUAAUCGCGUGGAUAUGGCACGCAAGUUUCUACCGGGCACCGUAAAUGUCCGACUGGAGCCGUUCGGGCGGCUAUAAACAGACCUCAGGCCCGAAGCGUGGCGGCACCUGCCGCCGGUGGUAAAAAAGAUCGGAAGAGCACACGUCU [U7A U8C G9U U10C C12U C13A], which “aptazyme ON/OFF ratio” value is on record?
Its value is 1.19.

Which “aptazyme ON/OFF ratio” value does the source give for GGGUCGACUCUUGAUAAUCGCGUGGAUAUGGCACGCAAGUUUCUACCGGGCACCGUAAAUGUCCGACUGGAGCCGUUCGGGCGGCUAUAAACAGACCUCAGGCCCGAAGCGUGGCGGCACCUGCCGCCGGUGGUAAAAAAGAUCGGAAGAGCACACGUCU [U7A U8C G9U U10C C12U C13G] here?
The value was 1.09.

With GGGUCGACUCUUUAUAAUCGCGUGGAUAUGGCACGCAAGUUUCUACCGGGCACCGUAAAUGUCCGACUGGAGCCGUUCGGGCGGCUAUAAACAGACCUCAGGCCCGAAGCGUGGCGGCACCUGCCGCCGGUGGUAAAAAAGAUCGGAAGAGCACACGUCU [U7A U8C G9U U10C C12U C13U] as the variant, how does the “aptazyme ON/OFF ratio” value read?
The value was 1.16.

With GGGUCGACUCCGAAUAAUCGCGUGGAUAUGGCACGCAAGUUUCUACCGGGCACCGUAAAUGUCCGACUGGAGCCGUUCGGGCGGCUAUAAACAGACCUCAGGCCCGAAGCGUGGCGGCACCUGCCGCCGGUGGUAAAAAAGAUCGGAAGAGCACACGUCU [U7A U8C G9U U10C U11C C12G C13A] as the variant, how does the “aptazyme ON/OFF ratio” value read?
The value was 1.04.

Which “aptazyme ON/OFF ratio” value does the source give for GGGUCGACUCCGUAUAAUCGCGUGGAUAUGGCACGCAAGUUUCUACCGGGCACCGUAAAUGUCCGACUGGAGCCGUUCGGGCGGCUAUAAACAGACCUCAGGCCCGAAGCGUGGCGGCACCUGCCGCCGGUGGUAAAAAAGAUCGGAAGAGCACACGUCU [U7A U8C G9U U10C U11C C12G C13U] here?
Its value is 1.04.

With GGGUCGACUCCGGAUAAUCGCGUGGAUAUGGCACGCAAGUUUCUACCGGGCACCGUAAAUGUCCGACUGGAGCCGUUCGGGCGGCUAUAAACAGACCUCAGGCCCGAAGCGUGGCGGCACCUGCCGCCGGUGGUAAAAAAGAUCGGAAGAGCACACGUCU [U7A U8C G9U U10C U11C C12G C13G] as the variant, how does the “aptazyme ON/OFF ratio” value read?
The value was 1.22.

With GGGUCGACUCAUAAUAAUCGCGUGGAUAUGGCACGCAAGUUUCUACCGGGCACCGUAAAUGUCCGACUGGAGCCGUUCGGGCGGCUAUAAACAGACCUCAGGCCCGAAGCGUGGCGGCACCUGCCGCCGGUGGUAAAAAAGAUCGGAAGAGCACACGUCU [U7A U8C G9U U10C U11A C12U C13A] as the variant, how does the “aptazyme ON/OFF ratio” value read?
Its value is 1.13.

With GGGUCGACUCAUUAUAAUCGCGUGGAUAUGGCACGCAAGUUUCUACCGGGCACCGUAAAUGUCCGACUGGAGCCGUUCGGGCGGCUAUAAACAGACCUCAGGCCCGAAGCGUGGCGGCACCUGCCGCCGGUGGUAAAAAAGAUCGGAAGAGCACACGUCU [U7A U8C G9U U10C U11A C12U C13U] as the variant, how does the “aptazyme ON/OFF ratio” value read?
Its value is 1.15.

With GGGUCGACUCAUGAUAAUCGCGUGGAUAUGGCACGCAAGUUUCUACCGGGCACCGUAAAUGUCCGACUGGAGCCGUUCGGGCGGCUAUAAACAGACCUCAGGCCCGAAGCGUGGCGGCACCUGCCGCCGGUGGUAAAAAAGAUCGGAAGAGCACACGUCU [U7A U8C G9U U10C U11A C12U C13G] as the variant, how does the “aptazyme ON/OFF ratio” value read?
The value was 1.09.

Which “aptazyme ON/OFF ratio” value does the source give for GGGUCGACUCUGUAUAAUCGCGUGGAUAUGGCACGCAAGUUUCUACCGGGCACCGUAAAUGUCCGACUGGAGCCGUUCGGGCGGCUAUAAACAGACCUCAGGCCCGAAGCGUGGCGGCACCUGCCGCCGGUGGUAAAAAAGAUCGGAAGAGCACACGUCU [U7A U8C G9U U10C C12G C13U] here?
The value was 1.51.

Which “aptazyme ON/OFF ratio” value does the source give for GGGUCGACUCUGGAUAAUCGCGUGGAUAUGGCACGCAAGUUUCUACCGGGCACCGUAAAUGUCCGACUGGAGCCGUUCGGGCGGCUAUAAACAGACCUCAGGCCCGAAGCGUGGCGGCACCUGCCGCCGGUGGUAAAAAAGAUCGGAAGAGCACACGUCU [U7A U8C G9U U10C C12G C13G] here?
The value was 1.33.

With GGGUCGACUCUUCAUAAUCGCGUGGAUAUGGCACGCAAGUUUCUACCGGGCACCGUAAAUGUCCGACUGGAGCCGUUCGGGCGGCUAUAAACAGACCUCAGGCCCGAAGCGUGGCGGCACCUGCCGCCGGUGGUAAAAAAGAUCGGAAGAGCACACGUCU [U7A U8C G9U U10C C12U] as the variant, how does the “aptazyme ON/OFF ratio” value read?
The value was 1.08.
